Residue numbers refer to the chain shown, from its start. Names and notes keep the numbering of the source. Like-named read-outs stand apart in the source and are kept apart here. Values belong to the binder of their own block, whether it stands above or below them.
What was measured:
[1] = biological target: T1, fXa (UniProt P00742 41-179; P00742 235-488); experiment: pseudo-first-order inhibition kinetics, residual chromogenic activity
T1 construct: also called factor Xa

[2] = biological target: T2, activated Protein C (APC) (human, UniProt P04070 43-197; P04070 212-461); experiment: as above
T2 construct: also called human plasma APC

[3] = biological target: T3, thrombin (UniProt P00734 328-622); experiment: as above
[4] = biological target: T1, fXa; experiment: pseudo-first-order inhibition kinetics, residual chromogenic activity (S2222)
Protocol: (§1) The inhibition of APC was reduced but still considerable, especially for the variants of α₁AT and the PCI variants in the presence of heparin. However, the specificity of PCI and α₁AT Pitts is not limited to thrombin and APC. […] In order not to inhibit coagulation, our variants also need to be specific for APC over fXa. We therefore also determined the rate constants of inhibition of PCI and α₁AT and their variants for fXa (Table 3). Rate constants were measured under pseudo-first-order conditions using an excess of serpin over protease. Serpin and protease were incubated together for varying lengths of time and the residual activity determined by adding an excess of chromogenic substrate (S2222) for the protease. Plots of residual protease activity over time gave the observed rate constant kobs. The second-order rate constant, k₂, is the slope of the plot of kobs versus serpin concentration (fitted using a linear regression model). Standard errors of the slope are shown (Table 3).

[5] = biological target: T2, activated Protein C (APC); experiment: ratio of rate constants, APC over thrombin (repeated from Table 1)
Protocol: (§2) Rate constants of thrombin and APC inhibition were measured under pseudo-first-order conditions using an excess of serpin over protease (Table 1). Serpin and protease were incubated together for varying lengths of time and the residual activity was determined by adding an excess of chromogenic substrate for the protease (S2238 for thrombin and […] for APC). Residual protease activity was then measured by following the absorbance at 405 nm. Plots of residual protease activity over time gave the observed rate constant kobs. The second-order rate constant, ₖ₂, is the slope of the plot of kobs versus serpin concentration (fitted using a linear regression model). Standard errors of the slope are shown.

[6] = biological target: T2, activated Protein C (APC); experiment: pseudo-first-order inhibition kinetics, residual chromogenic activity; remark: listed apart in the source
Protocol: as §2

[7] = biological target: T3, thrombin; experiment: as above; remark: listed apart in the source
Protocol: as §2

[8] = biological target: T2, activated Protein C (APC); experiment: ratio of rate constants, APC over fXIa
Protocol: APC inhibition is shown for comparison (from Table 1). Standard errors are shown.
In addition we wanted to determine whether FL α₁AT Pitts C232S P2KP1′K affected the intrinsic (contact activation) pathway. Second-order rate constants of inhibition of fXIa by FL α₁AT Pitts C232S and the P2KP1′K variant were measured under pseudo first-order conditions using an excess of serpin over protease. Serpin and protease were incubated together for varying lengths of time and the residual activity determined by adding an excess of chromogenic substrate for the protease (S2366). Plots of residual protease activity over time gave the observed rate constant kobs. The second-order rate constant, k₂, is the slope of the plot of kobs versus serpin concentration (fitted using a linear regression model). Standard errors of the slope are given.

[9] = biological target: T2, activated Protein C (APC); experiment: ratio of rate constants, APC over fXa (repeated from Table 3)
Protocol: as §1

[10] = biological target: T2, activated Protein C (APC); experiment: ratio of rate constants, APC over thrombin
Protocol: as §2

[11] = biological target: T2, activated Protein C (APC); experiment: pseudo-first-order inhibition kinetics (repeated from Table 1)
Protocol: as §2

[12] = biological target: T3, thrombin; experiment: as above
Protocol: as §2

[13] = biological target: T2, activated Protein C (APC); experiment: ratio of rate constants, APC over fXa
Protocol: as §1

[14] = biological target: T1, fXa; experiment: single-concentration estimate (FIG. 15)
Protocol: 1 μM serpin was incubated with 12.5 nM protease for different amounts of time. At the indicated timepoints, the reaction was stopped by addition of an excess of chromogenic substrate (S2238 for thrombin, S2222 for fXa). The residual enzyme activity was divided by the initial enzyme activity and the natural log of this value plotted against time. The slope of these plots is the observed rate constant, kobs. To obtain an estimate of the second-order rate constant k₂, kobs was divided by the serpin concentration. […] The mutants shown all have the Pitts (M358R, P1R) mutation.
Four additional mutants were identified from this additional screen. These all had the P1R mutation and in addition had either P2RP1′A, P2RP1′Q, P2WP1′I or P2WP1′H. To verify the specificity of these mutants, an initial experiment was performed, using only one concentration of serpin and testing its inhibition of thrombin and fXa. APC inhibition was not considered at this stage, because mutants were selected based on their low inhibition of thrombin and fXa. Serpin and protease were incubated for different times and at the indicated timepoints, the reaction was stopped by addition of an excess of chromogenic substrate. Residual protease activity was divided by the initial protease activity and the natural log of this value plotted against time (FIG. 15). The slope of this line divided by the serpin concentration gives an estimate of the second-order rate constant of inhibition.

[15] = biological target: T2, activated Protein C (APC); experiment: ratio of rate constants, APC over thrombin (repeated from Table 1); remark: listed apart in the source
[16] = biological target: T2, activated Protein C (APC); experiment: ratio of rate constants, APC over fXIa; remark: listed apart in the source
Protocol: as §2
Second-order rate constants of inhibition for inhibition of fXIa by PCI and the P2KP1′K variant were measured under pseudo-first-order conditions using an excess of serpin over protease. Serpin and protease were incubated together for varying lengths of time and the residual activity determined by adding an excess of chromogenic substrate for the protease (S2366). Plots of residual protease activity over time gave the observed rate constant kobs. The second-order rate constant, k₂, is the slope of the plot of kobs versus serpin concentration (fitted using a linear regression model).

[17] = biological target: T2, activated Protein C (APC); experiment: pseudo-first-order inhibition kinetics, residual chromogenic activity, no heparin
Protocol: as §2

[18] = biological target: T3, thrombin; experiment: as above
Protocol: as §2

[19] = biological target: T2, activated Protein C (APC); experiment: pseudo-first-order inhibition kinetics, residual chromogenic activity, with equimolar unfractionated heparin
Protocol: (§3) PCI, unlike α₁AT, binds heparin and this binding considerably increases its inhibition of thrombin and APC (Pratt & Church, 1992). We therefore tested the inhibition of thrombin and APC by the P1′K and P2KP1′K PCI mutants in the presence of heparin to see if the swap in specificity seen in Table 1 would persist. Rate constants were measured under pseudo-first-order conditions using an excess of PCI over protease. PCI was preincubated with an equimolar concentration of unfractionated heparin for 30 min prior to the experiment. PCI:heparin and protease were incubated together for varying lengths of time and the residual activity after certain timepoints determined by adding an excess of chromogenic substrate for the protease mixed with polybrene to bind the heparin. Plots of residual protease activity over time gave the observed rate constant kobs. The second-order rate constant, k₂, is the slope of the plot of kobs versus serpin concentration (fitted using a linear regression model). Standard errors of the slope are shown. […] This might be due to the substrate pathway or complex dissociation. As for the inhibition in the absence of heparin, the P1′K and P2KP1′K mutants of PCI, unlike the WT protein were specific for APC over thrombin (Table 2).

[20] = biological target: T3, thrombin; experiment: as above
Protocol: as §3

[21] = biological target: T2, activated Protein C (APC); experiment: ratio of rate constants with heparin, APC over thrombin
Protocol: as §3

T2 sequence (P04070 43-197, chain 1 of 2): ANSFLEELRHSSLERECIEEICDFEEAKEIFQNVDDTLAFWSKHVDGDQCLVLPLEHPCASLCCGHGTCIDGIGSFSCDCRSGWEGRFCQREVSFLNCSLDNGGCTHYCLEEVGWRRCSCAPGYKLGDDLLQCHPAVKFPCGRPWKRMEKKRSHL
T2 sequence (P04070 212-461, chain 2 of 2): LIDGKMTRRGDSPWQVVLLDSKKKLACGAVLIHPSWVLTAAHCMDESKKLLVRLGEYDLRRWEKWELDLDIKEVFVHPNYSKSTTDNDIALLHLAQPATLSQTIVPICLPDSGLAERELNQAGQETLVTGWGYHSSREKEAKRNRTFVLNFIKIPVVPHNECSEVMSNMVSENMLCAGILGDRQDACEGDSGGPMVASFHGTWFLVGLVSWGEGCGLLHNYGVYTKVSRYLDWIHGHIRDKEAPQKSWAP
T1 sequence (P00742 41-179 limits assumed, form in doubt, chain 1 of 2): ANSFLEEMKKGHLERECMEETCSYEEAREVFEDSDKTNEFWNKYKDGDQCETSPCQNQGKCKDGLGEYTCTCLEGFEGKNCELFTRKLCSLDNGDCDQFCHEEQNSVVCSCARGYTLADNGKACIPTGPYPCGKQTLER
T1 sequence (P00742 235-488 limits assumed, form in doubt, chain 2 of 2): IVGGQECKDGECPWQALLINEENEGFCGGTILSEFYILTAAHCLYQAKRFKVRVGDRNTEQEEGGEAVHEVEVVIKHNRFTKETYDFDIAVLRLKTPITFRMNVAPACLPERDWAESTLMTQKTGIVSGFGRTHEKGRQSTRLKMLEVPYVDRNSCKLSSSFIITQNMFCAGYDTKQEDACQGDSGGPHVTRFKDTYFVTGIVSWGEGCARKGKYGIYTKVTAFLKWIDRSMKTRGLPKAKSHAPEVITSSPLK

second-order rate constant of inhibition [1]: 170 M⁻¹ s⁻¹
second-order rate constant of inhibition [2]: 9000 M⁻¹ s⁻¹
second-order rate constant of inhibition [3]: 2.9 M⁻¹ s⁻¹
B1: FL α1AT Pitts C232S P2KP1′Q (other)
chain: SDPQGDAAQKTDTSHHDQDHPTFNKITPNLAEFAFSLYRQLAHQSNSTNIFFSPVSIATAFAMLSLGTKADTHDEILEGLNFNLTEIPEAQIHEGFQELLRTLNQPDSQLQLTTGNGLFLSEGLKLVDKFLEDVKKLYHSEAFTVNFGDTEEAKKQINDYVEKGTQGKIVDLVKELDRDTVFALVNYIFFKGKWERPFEVKDTEEEDFHVDQVTTVKVPMMKRLGMFNIQHSKKLSSWVLLMKYLGNATAIFFLPDEGKLQHLENELTHDIITKFLENEDRRSASLHLPKLSITGTYDLKSVLGQLGITKVFSNGADLSGVTEEAPLKLSKAVHKAVLTIDEKGTEAAGAMFLEAIKRQIPPEVKFNKPFVFLMIEQNTKSPLFMGKVVNPTQK

second-order rate constant of inhibition [4]: 41300 M⁻¹ s⁻¹
inhibition of APC/thrombin [5]: 0.4 fold
second-order rate constant of inhibition [6]: 108000 M⁻¹ s⁻¹
second-order rate constant of inhibition [7]: 293000 M⁻¹ s⁻¹
inhibition of APC/fXIa [8]: 0.3 fold
inhibition of APC/fXa [9]: 2.6 fold
fold inhibition APC/thrombin [10]: 0.4 fold
second-order rate constant of inhibition [11]: 108000 M⁻¹ s⁻¹
second-order rate constant of inhibition [12]: 293000 M⁻¹ s⁻¹
fold inhibition APC/fXa [13]: 2.6 fold
B2: FL α1AT Pitts C232S (other)
chain: B1 chain with K357P, Q359S
notes: Serpin; E. coli, SUMO tag removed; also called α1-antitrypsin Pittsburgh

second-order rate constant of inhibition [1]: 130 M⁻¹ s⁻¹
second-order rate constant of inhibition [2]: 8300 M⁻¹ s⁻¹
second-order rate constant of inhibition [3]: 5.4 M⁻¹ s⁻¹
B3: FL α1AT Pitts C232S P2RP1′Q (other)
chain: B1 chain with K357R

fold reduction of the second-order rate constant compared to FL α1AT Pitts C232S [14]: ~10 fold
B4: α1AT Pitts (P1R) mutant P2WP1′I (other)
chain: B1 chain with K357W, Q359I

inhibition of APC/thrombin [15]: 0.02 fold
second-order rate constant of inhibition [4]: 10300 M⁻¹ s⁻¹
inhibition of APC/fXIa [16]: 0.08 fold
second-order rate constant of inhibition [17]: 680 M⁻¹ s⁻¹
second-order rate constant of inhibition [18]: 28200 M⁻¹ s⁻¹
second-order rate constant of inhibition [19]: 564000 M⁻¹ s⁻¹
second-order rate constant of inhibition [20]: 1.31e+06 M⁻¹ s⁻¹
fold inhibition APC/thrombin [10]: 0.02 fold
second-order rate constant of inhibition [11]: 680 M⁻¹ s⁻¹
second-order rate constant of inhibition [12]: 28200 M⁻¹ s⁻¹
fold inhibition APC/thrombin [21]: 0.4 fold
fold inhibition APC/fXa [13]: 0.07 fold
B5: A22 WT PCI (other)
chain: APSSRRDFTFDLYRALASAAPSQNIFFSPVSISMSLAMLSLGAGSSTKMQILEGLGLNLQKSSEKELHRGFQQLLQELNQPRDGFQLSLGNALFTDLVVDLQDTFVSAMKTLYLADTFPTNFRDSAGAMKQINDYVAKQTKGKIVDLLKNLDSNAVVIMVNYIFFKAKWETSFNHKGTQEQDFYVTSETVVRVPMMSREDQYHYLLDRNLSCRVVGVPYQGNATALFILPSEGKMQQVENGLSEKTLRKWLKMFKKRQLELYLPKFSIEGSYQLEKVLPSLGISNVFTSHADLSGISNHSNIQVSEMVHKAVVEVDESGTRAAAATGTIFTFRSARLNSQRLVFNRPFLMFIVDNNILFLGKVNRP
notes: Serpin; E. coli, SUMO tag removed; also called A22 wild-type (WT) PCI

second-order rate constant of inhibition [4]: 520 M⁻¹ s⁻¹
second-order rate constant of inhibition [17]: 880 M⁻¹ s⁻¹
second-order rate constant of inhibition [18]: 22 M⁻¹ s⁻¹
second-order rate constant of inhibition [19]: 322000 M⁻¹ s⁻¹
second-order rate constant of inhibition [20]: 17 M⁻¹ s⁻¹
fold inhibition APC/thrombin [10]: 40 fold
fold inhibition APC/thrombin [21]: 18900 fold
fold inhibition APC/fXa [13]: 1.7 fold
B6: A22 P1′K PCI (other)
chain: B5 chain with S334K
notes: As A22 WT PCI

inhibition of APC/thrombin [15]: 9.3 fold
inhibition of APC/fXIa [16]: 12.2 fold
second-order rate constant of inhibition [17]: 280 M⁻¹ s⁻¹
second-order rate constant of inhibition [19]: 146000 M⁻¹ s⁻¹
fold inhibition APC/thrombin [10]: 9.3 fold
second-order rate constant of inhibition [11]: 280 M⁻¹ s⁻¹
fold inhibition APC/thrombin [21]: 1330 fold
B7: A22 P2KP1′K PCI (other)
chain: B5 chain with F332K, S334K
notes: As A22 WT PCI

Source: patent US20160311887A1 (CAMBRIDGE ENTERPRISE, published 2016)
